This data set can be described thus: label from the status in PepcDB records.
Consider “MITVLILRCIMVKSTTRKSAKSDRRRYNRIARFYDLFETPMELMNFRKWRKMLFDLIKAEKGLVLEIGAGTGKNIPHYPSNVVALDISEKMLERAVRRAKESGKKVDFLLADAENLPFRSNSFDVVFTTFVFCSVDDPVRGLREAFRVLKKGGRAYFLEHMLPKSRFLHPLFNLLNPIFRAFGPEINRRTDENIQRAGFQIVKEYMLFGSVFRLIVAEKPLDSVDEASGYSLKRSESSDSSNFRRFIGQSLLPLRLTQLLR”, for which the protein production result was “failed”.
For “MIVEVLIRVFFLICTAALGWGAGYILKLSSKEISSLLVYVISPFVIFVSILQSPADWTYFAYSLGALLTASVAAFLAYGLARMIWSDGRVNLFSFAAGTGNTGYFALPLAFALFNAQQIAIAVFIIIGINIYEFTVGYFIAAKGTFKTTDSLQKIVRLPILYAIILGMTFKKWGIDVGATLLSAMSNFKGAYSVLGMMVIGVTLASYQKIKIDWGFLIATLTWKHLIYPAVGVLIFYFITPVSIDTLAVIVMMLATPMAANTVVVANTLNLYPEKAAFSVMVSTFLAVVTVPLAIVWVTRLSR”, the protein production result was “failed”.
Turning to “MIVKEDSVEAVGAQLKVYHQQYQDKSREYDQLYEEYTRTSQELQMKRTAIEAFNETIKIFEEQGQTQEKCSKEYLERFRREGNEKEMQRILLNSERLKSRIAEIHESRTKLEQQLRAQASDNREIDKRMNSLKPDLMQLRKIRDQYLVWLTQKGARQKKINEWLGIKNETEDQYALMEDLEHHHHHH”, the protein production result is recorded as “failed”.
The result for “MIVPYSVEDILKDGCFLERAEIDRLLDRLRTKKNLILQGPPGTGKTWLAKRLAFALMGQKDDSKVRAVQFHPNLSYEDFVRGWRPTGEGKLSLADGVFMEAIKAASKDPSSKFVVVIEEINRGNPAQIFGELLTLLEAGKRTPNEALELCYPDADGKRRPVHIPENLYVVGTMNIADRSLALVDLALRRRFAFVGLEPRLGQVWRDWVVKECAVDPLEHHHHHH” reads “failed”; that for “MIVRGGGDLATGVIQKLWHVGFKILVLETECPLAIRRTVSVCDAIFQKEQRVEDLVAVRITSLKDCAKCWQQNKLPVFVDQTASAIQQLKPLIVIDAILAKKNLGTHRGMAPITIALGPGFSAPQDVDVVIETMRGHRLGRLYFEGTALPNTGIPGEIGGKSAERVVHAPASGQVTHLKNIGDLVLKGEALFLIDQVPVYSPLTGTLRGLISEKVTCYQGLKCADVDPRPVEKVDCLTISDKARALGGAVLEAIFMIGRRKNVLLEHHHHHH”, “not failed”; that for “MIVRMRSCAQAAKVAEATGGVQLAGKPKPDGTPTFSRYVEIGVDFEAHRPVVESVSVLFELYDGDANSYAATGGPGAQLPSGWMVTAAKFEVEWPADPQRAGLVRSHFGARRKAFNWGLAQVKADLDAKAADPAHESVDWDLKSLRWAWNRAKDDVAPWWAENSKECYSSGLADLAQGLANWKAGKNGTRKGRRVGFPRFKSGRRDPGRVRFTTGTMRIEDDRRTITVPVIGPLRAKENTRRVQRHLVSGRAQILNMTLSQRWGRLFVAVCYALRTPTTRSPLTQPTVRAGMDLGVRTLATVATLDTATGEQTIIEYPNPAPLKATLVARRRAGRELSRRIPGSHGHRAVKAKLARLDRRCVHLRREAAHQLTTELAGTYGQVVIEDLDVAAMKRSMRRRAFRRSVSDAAMGLVAPQLAYKTAKCSGVLTVADRWFASSQIHHGCTSPDGTPCRLQGKGRIDKHLLCPVTGEVVDRDRNAALNLRDWPDNASRGPVGTTAPSAPGPTTTVGTGHGADTGSSGAGGASVRPRPRRAGRGEAKTQTPQGDAA”, “failed”.
Under “MIWQLIDKHRQSFGVEPLCRVLQVSPSAYRRHAARLRDRSRRSARAIRDEELAVQIHRVWQENYEVYGARKVWRQMHREHQVVARCTVERLMREMGLCGVTRGKTVKTTQPDPDNANPRDLVKRQFTAERPNQLWVADFTFVSTWQGFAYVAFIVDVYSRFIVGWRVSRHMRTEFVLDALEQALHTRRPEPHRLVHHSDRGSQYLSIRYSERLGEAGIEPSVGNTGDSYDNALAETINGLYKTELIHKRGPWKSVDSLEWETLKWVTWFNHQRLLEPIGNRPPAEFEALYEQSQATISVAA” stands “failed”; under “MIYKITLTDISLAQAFISIPQDVIALDLSNNLLGSKSCVDLLVNIADCIPAGVTSLDLSSNGLRLTQVSLVTPKHVTSLNLCFNPLHEISIDGLEWLKDSLAHIQIIYLSYDMVNNMSREQRQAFRAVIPNIQTIILVDKNGKEIGPSHTAKIANLISELGGGNPEVPSLLNQCTFFVKTQGINIDKAYIPEELKKRIHDCNPL”, “failed”; under “MIYPDELAVITSKFELELSETDRNKVHENVSTVSGRDFFMSIFEGLKMKDKILEYWDFRSSDYHTEYAHCMDEEMDVWKSVFSEILLTDKKVRAVEVGTGPGILAISLAAMGHDVTGVDLSENMLEKAAANAREKGVNVLLMRGDAEDIPLKDGEYDFVLSKYLLWTLPQPDKFLGECCRLLKDGGIMMIIDGLWFHNPDGTEKKSSRYERFDELYGDVKPNLPFAKENTPERIADLAESHGFEDLTWRFLDDYDAFLERNDPSGHAAAYIKPPHMILAKKKVRNS”, “failed”.
As to “MIYSKVENFINENKQNAIFTEGASHENIGRIEENLQCDLPNSYKWFLEKYGAGGLFGVLVLGYNFDHASVVNRTNEYKEHYGLTDGLVVIEDVDYFAYCLDTNKMKDGECPVVEWDRVIGYQDTVADSFIEFFYNKIQEAKDDWDEDEDWDD”, the protein production entry is on record as “not failed”.
As for “MKAALLDQVARVGKALANGRRLQILDLLAQGERAVEAIATATGMNLTTASANLQALKSGGLVEARREGTRQYYRIAGEDVARLFALVQVVADEHLEHHHHHH”, the protein production entry is listed as “not failed”.
Under “MKAIMRRLIMTNFFNTPLFGLTLSVLAYTLGLSLYRRFPNPLTTPLLVSTALIIVILHYTGICYRDYYVGGSYLNSLIIPSTVALAVPFYKNLHLMRHHCKSILIGSTVACILNTTYTALIAKLFGMDYFLAISLFPKSVTTAMAVGISEKMQGITTVTLVVVVITGILTSVLGPVFLKMIGIKDPVAIGLSLGGTGHAVGTGTAFRYGQVAGAMGGLSIAVTGILYVFISPIVASLILR” stands “failed”; under “MKAIRRFTVRPVLPDALHPLSDLARNLRWSWHAETRELFQSVDPERWAASDGDPVRLLGSVPHARLAELAEDRRFLRRLGAAADDLTDYVTGDRWYQSQAEAPSRAAELPAAIAYFSPEFGVTAALPQYSGGLGILAGDHLKAASDLGVPLIGVGLLYRHGYFRQSLSRDGWQQEHYPVLDPHELPVVPLREDDGALAQVSLALPGGRRLQARIWLAQVGRVPLLMLDSDVEENDHGERGVTDRLYGGGSEHRLLQEMLLGIGGVRAVRTYCRLTGHAEPEVFHTNEGHAGFLGLERIAELCDTGLDFDAGLESVRAGTVFTTHTPVPAGIDRFDRELVARHFGPDAELPRIDVERILGLGMETYPGGEPNLFNMAVMGLRLGQRANGVSLLHGQVSREMFSGLWPGFDPDEVPITSVTNGVHAPTWVAPEVFRLGARQIGAQRTEDAMTVGGSERWDAVAEIPDQDIWDLRRVLREQLVTEVRERLRASWRQRGAGTAELGWIDGVLDPDVLTIGFARRVPSYKRLTLMLRDRDRLMDLLLHPERPVQIVVAGKAHPADDGGKRLVQELVRFADDPRVRHRIVFLPDYGMAMAQKLYPGCDIWLNNPLRPLEACGTSGMKAALNGCLNLSVLDGWWDEWFQPDFGWAIPTADGTATDEDRRDDLEATALYDLLEGRVAPRFYERGQAGLPDRWIEMVRQTLTHLGPKVLAGRMVREYVERLYTPAALAHRALTPEPARELATWKSRVRAAWPRVTVDHVETSVATTTAELGTTLSLRVRVGLGDLDPDDVEVQAVAGRVDGQDRITDATAVPLKPVGGPDLEGRRVYEGPLSLDRTGPFGYTVRILPTHRLLATSAELGLVAVPSEDVGEGAGVLLR”, “failed”.
Under “MKALNDLNIFVETARQGSFSKAANSMDMTPAAISASIKRLEGQIGFPLFVRSTRSLRLTSEGELFLDKTTQALATLQEGLDQISSARGELSGQLHITAPSDFGRNMLLDWVDEFIDLYPNVSIKLELSDSLTDMYTKPVDIAIRYGEPADSNLVVLALCGSNERILCASPEYVATHPELTSPADLTQHNCLCYMVADSVYNKWTLTRDGEKEQVVVSGNLMSNDSDLPHRLAIKGKGIANKSLMDISRDLIEGRLVRVLPEWDSGPVPLYMVCADRRLLTPTIRTFRDFIQQKCCQQRANVLATFCH” stands “failed”.
Under “MKALNKIRYAFLVCTLMVLVTLAGCNSADRSAEPPQSSHQGSEQEGAKKTPLNVEVFNLGERSMFAVSSVLVTGTADAILIDTQFSAADARQLVDKIKASGKRLKAIYISHGDPDYYFGLDSVHAAFPEAKVFATPQTIAHIQATKDAKLKLWAPQLGQDAPKQILIPEPMQGDQLVLEGQELRIIGMDGPTPDRTFVWIPSSRTVAGGISVMGAQHVWMADTQTPQSHMEWLAVLDRIKSMDPKVVVPGHFLPGASLDVRSVTFTADYIRAFDEETVKAKDSAALIAAMKQRYPGLGGEGSLELSAKVAKGEMEWK” stands “failed”; under “MKASFKGKFDVDKSGSVASLTFNAGNAKLRATMTDASFVAGPSFNGLSLAVEKPGFFIIDYNVPKKDVRFQFMNTIRIAEKPLNLTYIHMRGDNRTIVDGSFVIDPANKLSANYMVGTKNCKLKYTYVHGGIATFEPCYDVAKNMWDFAISHKLYGGDNLKATYQTSSKMLGLEWSNNSKSTGSFKVCASMNLAEELKPPKLTAETTWNLEL”, “not failed”; under “MKASSLAFSLLSAAFYLLWTPSTGLKTLNLGSCVIATNLQEIRNGFSEIRGSVQAKDGNIDIRILRRTESLQDTKPANRCCLLRHLLRLYLDRVFKNYQTPDHYTLRKISSLANSFLTIKKDLRLCHAHMTCHCGEEAMKKYSQILSHFEKLEPQAAVVKALGELDILLQWMEETE”, “failed”.
For the sequence “MKATFQVPSITCNHCVDKIEKFVGEIEGVSFIDVSVEKKSVVVEFDAPATQDLIKEALLDAGQEVV”, the protein production result was “failed”.
Under “MKATLAAPSSLTSLPYRTNSSFGSKSSLLFRSPSSSSSVSMTTTRGNVAVAAAATSTEALRKGIAEFYNETSGLWEEIWGDHMHHGFYDPDSSVQLSDSGHKEAQIRMIEESLRFAGVTDEEEEKKIKKVVDVGCGIGGSSRYLASKFGAECIGITLSPVQAKRANDLAAAQSLAHKASFQVADALDQPFEDGKFDLVWSMESGEHMPDKAKFVKELVRVAAPGGRIIIVTWCHRNLSAGEEALQPWEQNILDKICKTFYLPAWCSTDDYVNLLQSHSLQDIKCADWSENVAPFWPAVIRTALTWKGLVSLLRSGMKSIKGALTMPLMIEGYKKGVIKFGIITCQKPL” stands “failed”; under “MKAVFAKLGSDFFSTIVFVVLYFSTGNVALATIVAVLGAVGQFIYAKIKGQRLDVMAYASVALVVVLGGATLLTNDPRFVLIKPSVGHIAVGLLMLRRDWMLRYVPPIVAETIPDYVRIAGYAWAALMLLLGTGVIAAAMTGDIKVWTFYVMVIAPAFKVAAFAGQYLVFRIAIRSRRRAAVATAEPAASTPVTAEP”, “failed”; under “MKCIPYSVLLKDLEMRNLRELEDLIIEAVYTDIIQGKLDQRNQLLEVDFCIGRDIRKKDINNIVKTLHEWCDGCEAVLLGIEQQVLRANQYKENHNRTQQQVEAEVTNIKKTLKATASSSAQEMEQQLAERECPPHAEQRQPTKKMSKVKGLVSSRH”, “not failed”.
With “MKDETNIKTIALAIVLIAGYNVYTSQQDVKMFSLTLANIEALAMDETTQCDNANGYRRILEGDERIYDCCYLEKVGKLEHHHHHH”, the protein production entry is “failed”.

Values taken from a protein production outcome set (Wang et al. 2014).
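Also: failed if final PepcDB status was selected cloned or expressed and not failed if soluble or beyond.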
